From IntAct's records for PubMed 12134079

B1: "Bis(monoacylglycero)phosphate synthase CLN5" (Homo sapiens), O75503 (parent)
chain: MAQEVDTAQGAEMRRGAGAARGRASWCWALALLWLAVVPGWSRVSGIPSRRHWPVPYKRFDFRPKPDPYCQAKYTFCPTGSPIPVMEGDDDIEVFRLQAPVWEFKYGDLLGHLKIMHDAIGFRSTLTGKNYTMEWYELFQLGNCTFPHLRPEMDAPFWCNQGAACFFEGIDDVHWKENGTLVQVATISGNMFNQMAKWVKQDNETGIYYETWNVKASPEKGAETWFDSYDCSKFVLRTFNKLAEFGAEFKNIETNYTRIFLYSGEPTYLGNETSVFGPTGNKTLGLAIKRFYYPFKPHLPTKEFLLSLLQIFDAVIVHKQFYLFYNFEYWFLPMKFPFIKITYEEIPLPIRNKTLSGL
partner: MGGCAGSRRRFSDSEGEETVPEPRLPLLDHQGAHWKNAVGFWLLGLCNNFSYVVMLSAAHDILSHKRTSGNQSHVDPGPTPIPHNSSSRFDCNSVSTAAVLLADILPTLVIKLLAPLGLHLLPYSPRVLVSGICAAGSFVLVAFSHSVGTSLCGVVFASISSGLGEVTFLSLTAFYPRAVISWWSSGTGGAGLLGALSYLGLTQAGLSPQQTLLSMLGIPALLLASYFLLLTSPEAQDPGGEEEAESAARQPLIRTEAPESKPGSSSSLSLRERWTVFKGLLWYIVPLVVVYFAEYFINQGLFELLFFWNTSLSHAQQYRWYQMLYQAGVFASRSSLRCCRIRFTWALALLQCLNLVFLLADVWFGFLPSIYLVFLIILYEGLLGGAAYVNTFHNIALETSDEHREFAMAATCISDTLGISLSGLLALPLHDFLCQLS

Variants of: B1
Conditions: with cln3_human CLN3, Q13286

| Variant | effect of a mutation on the interaction |
| --- | --- |
| D230N | with no effect |
